The values below come from patent US20090098076A1, “Method For the Production of a Keratin-Binding Effector Molecule” (BASF SE, priority 2005, published 2009).

The assay deals with hair (human). Description: Quantitative binding to hair (KBD activity test hair, Example 10). The conditions noted are these: human hair; detection via His tag with antibody-peroxidase conjugate and TMB. On the procedure: In this test, hair was firstly incubated with KBD and excess KBD was washed off. An antibody-peroxidase conjugate was then coupled via the His tag of the KBD. Nonbound antibody-peroxidase conjugate was washed off again. The bound anti body-peroxidase conjugate [Monoclonal AntipolyHistidine Peroxidase Conjugate, produced in mouse, lyophilized powder, Sigma] can convert a colorless substrate (TMB) into a colored product, which can be measured photometrically at 405 nm. The intensity of the absorption indicates the amount of bound KBD or comparison protein. The comparison protein chosen was, for example, YaaD from B. subtilis, which likewise had—as is necessary for this test—a His tag for the detection. Instead of the His tag, other specific antibodies conjugated with peroxidase can also be used.
(or at least 2 h at room temperature) with gentle swinging movements. • Centrifugation, removal of the supernatant • 3× washing with PBS […] • Incubation with 1 ml monoclonal mouse anti-tag (His6 or HA) antibodies with peroxidase:conjugate (1:2000 in PBS/0.05% Tween 20) [Monoclonal AntipolyHistidine Peroxidase Conjugate, produced in mouse, lyophilized powder, Sigma] for 2-4 h at room temperature, gentle swinging movement • 3× washing with PBS/0.05% Tween 20 • Addition of peroxidase substrate (1 ml/Eppendorf vessel) • Allow reaction to proceed until blue coloration (about 2 minutes). • Stop the reaction with […] of 2 M H2SO4. • The absorption is measured at 405 nm.
Peroxidase Substrate (Prepare Shortly Beforehand):
0.1 ml TMB solution (42 mM TMB in DMSO) +10 ml of substrate buffer (0.1 M sodium acetate pH 4.9) +14.7 μl H2O2 3% strength BSA=Bovine serum albumin PBS=Phosphate buffered salt solution
Tween 20=polyoxyethylene sorbitan monolaureate, n about 20
TMB=3,5,3′,5′-tetramethylbenzidine

B1: KBD-B denatured: KBD-B (SEQ ID No.: 166) from inclusion bodies, not renatured (protein, listed as Homo sapiens)
chain: MRGSHHHHHHGSACELEPHTGLLLLSVQKRSMSFQGIRQPVTVTELVDSGILRPSTVNELESGQISYDEVGERIKDFLQGSSCIAGIYNETTKQKLGIYEAMKIGLVRPGTALELLEAQAATGFIVDPVSNLRLPVEEAYKRGLVGIEFKEKLLSAERAVTGYNDPETGNIISLFQAMNKELIEKGHGIRLLEAQIATGGIIDPKESHRLPVDIAYKRGYFNEELSEILSDPSDDTKGFFDPNTEENLTYLQLKERCIKDEETGLCLLPLKEKKKQVQTSQKNTLRKRRVVIVDPETNKEMSVQEGVDLQPSLIS
modifications: denatured
As for B1, the “measured absorption values at 405 nm (quantitative KBD activity test hair)” value is “A405 nm = 0.254”.

B2: KBD-B renatured: KBD-B (SEQ ID No.: 166) renatured by dialysis (protein, listed as Homo sapiens)
chain: B1 chain
modifications: renatured
As to B2, the “measured absorption values at 405 nm (quantitative KBD activity test hair)” value was “A405 nm = 1.591”.
